This passage reports binding result and Kd results from US20050123563A1 (INTEGRAL MOLECULAR, published 2005).

For assay [1], the target named is T1, Radiolabeled SDF-1α (Perkin-Elmer) (UniProt P48061-2 22-89).
T1 construct: also called radioligand
Put plainly: radioligand binding: fixed radiolabeled SDF-1α with CXCR3 lipoparticles, filtration, gamma counting.

Assay [2] deals with T2, SDF-1 (unlabeled chemokine, 8 kDa) (UniProt P48061-2 22-89).
T2 construct: also called 8 kDa natural ligand (SDF-1); cold ligand (Peprotech)
Description: radioligand competition on CXCR4 lipoparticles: increasing cold SDF-1 against 0.1 nM radiolabeled SDF-1α, 1 h at room temperature, filtration through GF/C filters, gamma counting [box at the upper right]. Background: Displacement assays read how much labelled ligand stays bound in the presence of the test substance.

Assay [3] addresses T3, Protein A (ProA) beads bearing no antibody (Staphylococcal, UniProt P38507 37-477).
T3 construct: also called no antibody control
Description: fluorescence microscopy of Protein A beads without antibody, probed with fluorescent lipoparticles containing CXCR4.

B1: CXCR3 incorporated into lipoparticles (receptor, UniProt P49682 1-368, looked up)
chain: MVLEVSDHQVLNDAEVAALLENFSSSYDYGENESDSCCTSPPCPQDFSLNFDRAFLPALYSLLFLLGLLGNGAVAAVLLSRRTALSSTDTFLLHLAVADTLLVLTLPLWAVDAAVQWVFGSGLCKVAGALFNINFYAGALLLACISFDRYLNIVHATQLYRRGPPARVTLTCLAVWGLCLLFALPDFIFLSAHHDERLNATHCQYNFPQVGRTALRVLQLVAGFLLPLLVMAYCYAHILAVLLVSRGQRRLRAMRLVVVVVVAFALCWTPYHLVVLVDILMDLGALARNCGRESRVDVAKSVTSGLGYMHCCLNPLLYAFVGVKFRERMWMLLLRLGCPNQRGLQRQPSSSRRDSSWSETSEASYSGL
notes: whole, on cells
Take B1: the binding result in assay [1] is reported as “no binding (tested: about 1.25 ug lipoparticles)”.

B2: CXCR4 (chemokine receptor, GPCR) incorporated into lipoparticles (receptor, UniProt P61073 1-352, looked up)
chain: MEGISIYTSDNYTEEMGSGDYDSMKEPCFREENANFNKIFLPTIYSIIFLTGIVGNGLVILVMGYQKKLRSMTDKYRLHLSVADLLFVITLPFWAVDAVANWYFGNFLCKAVHVIYTVNLYSSVLILAFISLDRYLAIVHATNSQRPRKLLAEKVVYVGVWIPALLLTIPDFIFANVSEADDRYICDRFYPNDLWVVVFQFQHIMVGLILPGIVILSCYCIIISKLSHSKGHQKRKALKTTVILILAFFACWLPYYIGISIDSFILLEIIKQGCEFENTVHKWISITEALAFFHCCLNPILYAFLGAKFKTSAQHALTSVSRGSSLKILSKGKRGGHSSVSTESESSSFHSS
notes: whole, on cells; also called CXCR4-lipoparticles; CXCR4-containing lipoparticles
A word on the Kd: it is the equilibrium constant for the complex coming apart. Lower therefore signals a tighter complex. In assay [2], B2 registered a Kd of 8.53 nM. In addition, in assay [3], the binding result is “no binding”.
